Consider four compounds from ChEMBL document CHEMBL5346942, “Identification and analysis of small molecule inhibitors of FosB from Staphylococcus aureus” (RSC Med Chem, 2023).

The kcat is the maximal rate divided by the concentration of active sites. What is called Km is the substrate concentration at which the rate is half of its maximum. One may read the kcat/Km as the second-order rate constant that governs catalysis at low substrate concentration.

Data set [1] addresses Metallothiol transferase FosB (Staphylococcus aureus) (UniProt Q5HDM4). The experiment in a line: Inhibition of Staphylococcus aureus FosB using L-cysteine as substrate by absorbance based DTNB assay.
Data set [2] has as its system C[C@@H](C(=O)O)P(=O)(O)O. In words: (§1) Binding affinity to Staphylococcus aureus FosB using L-cysteine as substrate assessed as catalytic constant by DTNB assay based michaelis-menton analysis (reference value: 2.95 /s).
Data set [3] has as its system C[C@H](CO)P(=O)(O)O. The description is as §1.
Data set [4] has as its system CC(C)[C@H](O)P(=O)(O)O. Described as §1.
Data set [5] relates to CC[C@@H](O)P(=O)(O)O. The description is as §1.
Data set [6] relates to O=C(O)CP(=O)(O)O. The data set is described as §1.
The test system of data set [7] is C[C@@H](C(=O)O)P(=O)(O)O. In words: (§2) Binding affinity to Staphylococcus aureus FosB using L-cysteine as substrate assessed as Km by DTNB assay based michaelis-menton analysis (reference value: 0.29 +/- 0.03 mM).
For data set [8], the system named is C[C@H](CO)P(=O)(O)O. The data set is described as §2.
Data set [9] concerns CC(C)[C@H](O)P(=O)(O)O. The description is as §2.
Data set [10] has as its system CC[C@@H](O)P(=O)(O)O. Described as §2.
Data set [11] relates to O=C(O)CP(=O)(O)O. Described as §2.
Data set [12] has as its system C[C@@H](C(=O)O)P(=O)(O)O. In words: (§3) Binding affinity to Staphylococcus aureus FosB using L-cysteine as substrate assessed as Kcat/Km by DTNB assay based michaelis-menton analysis (reference value: 10.33 /mM/s).
In data set [13] the test system is C[C@H](CO)P(=O)(O)O. Described as §3.
Data set [14] has as its system CC(C)[C@H](O)P(=O)(O)O. The description is as §3.
In data set [15] the test system is CC[C@@H](O)P(=O)(O)O. The description is as §3.
Data set [16] concerns O=C(O)CP(=O)(O)O. The description is as §3.

Active and inactive are the calls of the source. No cut-off for these calls is given here.

Chain of Metallothiol transferase FosB (Staphylococcus aureus) (Q5HDM4 whole entry): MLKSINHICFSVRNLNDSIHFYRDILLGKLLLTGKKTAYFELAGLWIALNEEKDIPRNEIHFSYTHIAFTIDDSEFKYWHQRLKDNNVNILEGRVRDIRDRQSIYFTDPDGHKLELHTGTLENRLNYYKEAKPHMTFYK
Chain of Metallothiol transferase FosB (Staphylococcus aureus), Q5HDM4 (Q5HDM4 whole entry): as above

Turning to `O=P(O)(O)CCP(=O)(O)O`, the inhibition result in [1] was “inactive”.
Same read-out and setting: for `O=C(O)CCP(=O)(O)O` the value was “inactive”; for `CC(C(=O)O)C(=O)O`, “inactive”.
For “Metallothiol transferase FosB (Staphylococcus aureus), Q5HDM4”, the catalytic constant (kcat) with C[C@@H](C(=O)O)P(=O)(O)O [2] was determined as 2.84 s⁻¹; in the data set with C[C@H](CO)P(=O)(O)O [3] it was 2.91 s⁻¹; in the data set on CC(C)[C@H](O)P(=O)(O)O [4] it was 2.84 s⁻¹; in the data set with CC[C@@H](O)P(=O)(O)O [5] it was 2.82 s⁻¹; in the data set with O=C(O)CP(=O)(O)O [6] it was 2.83 s⁻¹. In addition, the Km in the data set on C[C@@H](C(=O)O)P(=O)(O)O [7] was determined as 250 µM; with C[C@H](CO)P(=O)(O)O [8], 270 µM; with CC(C)[C@H](O)P(=O)(O)O [9], 250 µM; with CC[C@@H](O)P(=O)(O)O [10] it was 250 µM; in the data set with O=C(O)CP(=O)(O)O [11], 240 µM. The catalytic efficiency (kcat/Km) in the data set on C[C@@H](C(=O)O)P(=O)(O)O [12] was determined as 11400 M⁻¹ s⁻¹; with C[C@H](CO)P(=O)(O)O [13], 10600 M⁻¹ s⁻¹; in the data set on CC(C)[C@H](O)P(=O)(O)O [14], 11200 M⁻¹ s⁻¹; with CC[C@@H](O)P(=O)(O)O [15], 11400 M⁻¹ s⁻¹; in the data set with O=C(O)CP(=O)(O)O [16], 11800 M⁻¹ s⁻¹.
